# Data as given in patent US7109303.
# Experiments:
# [1] = molecular target: murine p55 receptor (on mouse L-M cells) (murine) (UniProt P25118); test: cell-based or functional assay
# [2] = molecular target: TNF receptors (on L-M mouse fibroblasts); test: cell-based or functional assay
# UniProt P25118, sequence (P25118 30-454): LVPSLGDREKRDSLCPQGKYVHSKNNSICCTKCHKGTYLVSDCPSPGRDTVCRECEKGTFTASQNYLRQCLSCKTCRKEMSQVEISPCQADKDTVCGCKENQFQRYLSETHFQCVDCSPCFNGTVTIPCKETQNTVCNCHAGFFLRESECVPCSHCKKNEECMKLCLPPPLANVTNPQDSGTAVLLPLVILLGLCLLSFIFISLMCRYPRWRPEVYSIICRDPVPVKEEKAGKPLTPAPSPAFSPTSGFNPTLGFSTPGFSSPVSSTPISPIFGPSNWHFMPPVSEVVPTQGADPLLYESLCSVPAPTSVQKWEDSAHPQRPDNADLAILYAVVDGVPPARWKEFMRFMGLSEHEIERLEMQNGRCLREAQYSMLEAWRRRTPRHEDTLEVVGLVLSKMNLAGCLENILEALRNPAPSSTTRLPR
Substance,in vitro cytolytic activity on mouse L-M cells [1] [units/mg],"in vitro cytotoxic activity, standard cytolytic assay with L-M cells [2] [units/mg]"
"human NGR-TNF (CNGRCG-TNF1-157), refolded (from UniProt P01375 1-233)",5.09e+07,–
"human NGR-TNF (CNGRCG-TNF1-157), non-refolded (from UniProt P01375 1-233)",6.11e+07,–
murine NGR-TNF (Cys-Asn-Gly-Arg-Cys-Gly-TNF1-156) (from UniProt P06804 80-235),–,1.8e+08
